Assay results from article PMC3130009, “Trichinella spiralis Paramyosin Binds to C8 and C9 and Protects the Tissue-Dwelling Nematode from Being Attacked by Host Complement” (PLoS Neglected Tropical Diseases, 2011).

How the values were obtained:
Experiment in all cases: cell-based or functional assay
[1] = target: human complement component C9 (human, UniProt P02748 22-559)
[2] = target: human complement component C8, alpha chain (human, UniProt P07357 31-584)
[3] = target: human complement component C8, beta chain (human, UniProt P07358 55-591)
Chain of human complement component C8, beta chain (P07358 55-591): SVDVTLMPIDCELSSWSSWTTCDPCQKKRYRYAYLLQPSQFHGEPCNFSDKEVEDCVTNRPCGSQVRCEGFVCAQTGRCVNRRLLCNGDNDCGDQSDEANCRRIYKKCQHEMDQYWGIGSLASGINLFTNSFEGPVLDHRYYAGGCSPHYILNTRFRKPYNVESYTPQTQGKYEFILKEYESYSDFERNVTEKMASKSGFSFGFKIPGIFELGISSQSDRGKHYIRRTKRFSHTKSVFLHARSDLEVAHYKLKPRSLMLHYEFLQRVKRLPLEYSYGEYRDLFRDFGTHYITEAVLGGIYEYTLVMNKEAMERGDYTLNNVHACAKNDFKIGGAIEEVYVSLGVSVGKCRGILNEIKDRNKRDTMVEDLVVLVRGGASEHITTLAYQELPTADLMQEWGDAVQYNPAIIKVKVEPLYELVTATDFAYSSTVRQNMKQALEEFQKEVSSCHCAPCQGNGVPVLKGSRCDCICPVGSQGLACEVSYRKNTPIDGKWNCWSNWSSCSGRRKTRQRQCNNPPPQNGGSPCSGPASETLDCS

Measured: reduction of alternative-pathway complement-mediated lysis of rabbit erythrocytes by 6% normal guinea pig serum, 0 to 40 µg rTs-Pmy (55.7% at 10 µg)

Chain of human complement component C8, alpha chain (P07357 31-584): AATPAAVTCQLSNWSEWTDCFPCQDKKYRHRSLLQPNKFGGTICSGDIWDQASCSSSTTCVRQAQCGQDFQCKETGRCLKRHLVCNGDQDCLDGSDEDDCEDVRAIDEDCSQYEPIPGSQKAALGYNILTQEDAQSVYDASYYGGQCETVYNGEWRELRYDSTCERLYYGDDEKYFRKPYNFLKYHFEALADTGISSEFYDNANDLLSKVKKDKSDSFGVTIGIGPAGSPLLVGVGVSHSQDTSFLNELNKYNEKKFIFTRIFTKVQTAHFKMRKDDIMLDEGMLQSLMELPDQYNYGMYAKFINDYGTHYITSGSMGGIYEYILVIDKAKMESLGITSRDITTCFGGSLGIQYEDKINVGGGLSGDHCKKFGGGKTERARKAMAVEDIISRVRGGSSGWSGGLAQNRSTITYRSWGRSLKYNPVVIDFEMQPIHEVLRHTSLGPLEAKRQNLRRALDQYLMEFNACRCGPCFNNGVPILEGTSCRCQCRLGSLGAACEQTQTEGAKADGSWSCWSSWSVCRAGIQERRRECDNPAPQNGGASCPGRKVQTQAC
Chain of human complement component C9 (P02748 22-559): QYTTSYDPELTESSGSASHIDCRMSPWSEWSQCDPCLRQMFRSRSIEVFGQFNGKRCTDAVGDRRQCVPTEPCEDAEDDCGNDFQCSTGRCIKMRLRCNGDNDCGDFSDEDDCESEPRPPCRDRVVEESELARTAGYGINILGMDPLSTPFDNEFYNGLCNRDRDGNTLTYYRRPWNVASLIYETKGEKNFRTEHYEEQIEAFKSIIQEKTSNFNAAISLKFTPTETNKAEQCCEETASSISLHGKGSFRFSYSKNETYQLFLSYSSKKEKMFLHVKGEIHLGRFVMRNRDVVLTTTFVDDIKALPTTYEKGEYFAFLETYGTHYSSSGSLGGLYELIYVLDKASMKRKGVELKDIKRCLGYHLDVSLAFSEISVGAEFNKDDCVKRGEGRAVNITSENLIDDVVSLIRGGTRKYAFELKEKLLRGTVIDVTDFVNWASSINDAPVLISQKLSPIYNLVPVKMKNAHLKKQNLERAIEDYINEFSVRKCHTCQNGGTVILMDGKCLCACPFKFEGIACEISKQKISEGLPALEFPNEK

B1: recombinant Trichinella spiralis paramyosin (natural protein)
chain: MSLYRSPSASVMRSASMLSRSGGFDAYGFGGYGAPSLNVADLGSLTRLEDKIRLLQDDLETERELRNRIERERADLSCQLISLTDRLEEAEGTTDAQIDANRKRESELQKLRKILEDSQLESEDSLNQLRKKHQESLLDYQQQIEQLQKKNSKIDRERQRLQHEVIELTAGIDQMQKDKHAAEKAAEKHEAHARELQNRVDDLAKNLNDLASQRQRLQQENNDLMKELHDVKVQMENIQHVKTQLAQQLEEARRRLEDAERERSQMQTQLHQMQLELDSIQGALEEESSARAEAEHKLSLANTEISQWKSKFDAEVSLHQEEVDDLRKKMIQKQAEYEEQIEIMLQKISQLEKAKSRLQSEVEVLIVDLEKAQSTIAILERQKEQLERMVAEMKTRLDEVTQELEATQRELRATQAELQKMKHLYEKAVEQKEALARENKKLQDDLHEAKEALADANRKLHELDLENARLAGEIRELQIALKEAEAARRDAESRAQRAVAELQALRVEMERRLQEKEEEMEALRKNMQFEIDRLAAALADAEARMKAEISRLKKKYQAEIAELEMTIDNLNRANLEAQKTIKKQADQLRALQSSFEDCQRQLQQTLDQYAIAQRKLSALSAELEDCKSALDTAIRVRKQAEADLEEAQGKIADLVSLNNNLTAIKGKLETDLSTCQADLDETTKELRAADDRANRAQQDAVRAMEQLHEEQEHSMKIDAMRKALEEHVKQLQVQIQEAEAAALLGGKRVIAKLETRIRDLEMALDEESRRHKETQACLRKKDRRVKEMQMQVDEEHKNFVMAQDTAERLAEKLNIYKRQLTEAESLTMQNLQRVRRYQHELEDAEGRAEQAESSLHLIRAKHRSSVSMGKSLSSKVYVMEEGHEY
91.9 % reduction of lysis: all assays above
